Measured values as given in US10787678.

Molecular target: A. diaperinus cadherin-1 (AdCad1) (Alphitobius diaperinus)
Assay: cell-based or functional assay

## Cry3Bb toxin (from UniProt Q06117 64-652)
  larval mortality on day 3, 100 ug/cm^2 Cry3Bb, larvae injected with AdCad1-dsRNA #1 (AdCad1 knocked down): 8%
  larval mortality on day 3, 100 ug/cm^2 Cry3Bb, larvae injected with AdCad1-dsRNA #2 (AdCad1 knocked down): 11%
